Data on three molecules can be found in US20150315279A1 (CELLERANT THERAPEUTICS, published 2015).

No end group written: not given here.

For test [1], the target named is T1, secreted form of IL1RAP (recombinant) (human, UniProt Q9NPH3 21-350).
T1 construct: also called recombinant form of the secreted IL1RAP; soluble IL1RAP
T1 sequence: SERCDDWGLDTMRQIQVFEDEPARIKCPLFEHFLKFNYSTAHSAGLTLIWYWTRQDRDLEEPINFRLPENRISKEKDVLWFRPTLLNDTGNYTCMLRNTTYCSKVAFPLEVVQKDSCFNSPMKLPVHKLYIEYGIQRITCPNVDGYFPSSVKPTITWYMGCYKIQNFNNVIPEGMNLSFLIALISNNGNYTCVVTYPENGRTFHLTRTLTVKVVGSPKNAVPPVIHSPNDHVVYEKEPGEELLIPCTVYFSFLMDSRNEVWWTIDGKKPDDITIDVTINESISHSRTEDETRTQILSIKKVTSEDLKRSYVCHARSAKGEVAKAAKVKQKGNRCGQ
Description: ELISA, antigen coated at 2 ug/ml. The procedure: (§1) An ELISA was performed to further determine the specificity of monoclonal antibodies 4G9, 12F1, and 42E1. Wells of 96-well plate were coated with the secreted form of IL1RAP, ECD form of IL1RAP, ACPep-1 conjugated to KLH, or unconjugated KLH at 2 ug/ml overnight at 2-8° C. The coated wells were washed with PBS with 0.05% Tween-20, and then blocked with 1% BSA. Purified test antibodies 4G9, 12F1 and 42E1 were diluted to 20 ug/ml, added to wells coated with various proteins, and incubated at RT for 1 hr. Antibody 12G6, which binds to both the ECD and the secreted form of IL1RAP, was added as a control. Mouse IgG1 was also added as an isotype control. After incubation and PBS washes, donkey anti-mouse-HRP polyclonal antibodies were added. Color was developed with TMB substrate after incubation and PBS washes. The reaction was quenched with acid and the plate was read at 450 nm.
(An ELISA detects its analyte on a solid surface through an enzyme-linked reagent.)

Test [2] addresses T2, ACPep-1 conjugated to KLH (human, also: conjugated to KLH, site and chemistry not given here).
T2 construct: Peptide-carrier conjugate; also called ACPep-1-KLH; ACPep-1 conjugated KLH; not shown: Keyhole limpet hemocyanin (KLH) carrier
T2 peptide: VKQKVPAPRYTVELAC
Nature of the test: ELISA, antigen coated at 2 ug/ml, antibody at 20 ug/ml. Here is the method: as §1

Test [3] deals with T3, peptide AC Pep-1 (human).
T3 peptide: VKQKVPAPRYTVELAC
Nature of the test: ELISA of hybridoma supernatant on peptide AC Pep-1.

For test [4], the target named is T4, extracellular domain (ECD) form of IL1RAP (human, UniProt Q9NPH3 21-367).
T4 construct: also called ECD of IL1RAP; ECD IL1RAP
T4 sequence: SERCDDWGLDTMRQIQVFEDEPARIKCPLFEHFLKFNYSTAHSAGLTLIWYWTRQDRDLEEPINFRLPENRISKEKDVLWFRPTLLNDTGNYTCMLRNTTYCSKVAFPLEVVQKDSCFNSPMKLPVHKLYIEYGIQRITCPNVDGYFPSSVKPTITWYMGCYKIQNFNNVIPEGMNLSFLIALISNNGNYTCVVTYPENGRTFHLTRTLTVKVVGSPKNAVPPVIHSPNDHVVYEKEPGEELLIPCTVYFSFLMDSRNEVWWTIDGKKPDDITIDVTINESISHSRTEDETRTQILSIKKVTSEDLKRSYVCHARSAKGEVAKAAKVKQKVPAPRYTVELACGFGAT
Description: ELISA, IL1RAP captured by goat anti-human IL1RAP polyclonal, 1F5 at 1 µg/ml. Here is the method:
Wells of a 96-well ELISA plate were coated with goat-anti-human IL1RAP polyclonal at 0.5 μg/ml and incubated overnight at 2-8° C. The coated wells were washed with PBS with 0.05% Tween-20, then blocked with 1% BSA. IL1RAP was added into the wells at 0.5, 1, or 2 μg/ml followed by an incubation and a 3×PBS wash. After the 3×PBS wash, antibody 1F5 was added to the wells at 1 μg/ml followed by an incubation and a 3×PBS wash. After the 3×PBS wash, donkey-anti-mouse-HRP was added to the wells at a 1:50,000 dilution followed by an incubation and a 3×PBS wash. Color was developed with TMB substrate. The reaction was quenched with acid and the plate was read at 450 nm.

The target in test [5] is T5, human interleukin 1 receptor accessory protein, membrane-bound (receptor) form on cells (human, UniProt Q9NPH3 21-570).
T5 construct: also called IL1RAP; receptor IL1RAP
T5 sequence: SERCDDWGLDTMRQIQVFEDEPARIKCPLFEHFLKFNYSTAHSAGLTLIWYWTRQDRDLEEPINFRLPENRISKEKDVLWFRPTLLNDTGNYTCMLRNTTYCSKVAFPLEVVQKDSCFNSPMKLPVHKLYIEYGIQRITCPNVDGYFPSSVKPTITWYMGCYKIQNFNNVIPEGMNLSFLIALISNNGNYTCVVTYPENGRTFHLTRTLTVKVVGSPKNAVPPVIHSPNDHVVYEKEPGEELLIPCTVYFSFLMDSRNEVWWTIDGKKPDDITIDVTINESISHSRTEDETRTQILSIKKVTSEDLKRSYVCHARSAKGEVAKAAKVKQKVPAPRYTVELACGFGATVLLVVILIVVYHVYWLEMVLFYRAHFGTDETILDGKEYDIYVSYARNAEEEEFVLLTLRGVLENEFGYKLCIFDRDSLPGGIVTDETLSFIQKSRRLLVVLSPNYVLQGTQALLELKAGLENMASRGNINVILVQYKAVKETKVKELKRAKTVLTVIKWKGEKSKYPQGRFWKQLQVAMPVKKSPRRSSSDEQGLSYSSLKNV
Description: flow cytometry on BMMC or PBMC of AML patients, 1F5 at 2 µg/mL. The procedure: Bone Marrow-Derived […] (BMMC) or Peripheral Blood Mononuclear Cells (PBMC) were isolated by Ficoll separation (GE Healthcare) from bone marrow aspirate or whole blood respectively of AML patients. Cells were resuspended in staining solution (HBSS, 1% BSA, 1 mM EDTA) to 2×10⁶ cells/mL and blocked with mouse and rat IgG prior to staining. Unconjugated IgG2a or 1F5 antibodies were added to each tube to a final concentration of 2 μg/mL. 50 μL of the cell solution was added to each tube and incubated on ice for 30 min (each stage of incubation was 30 min). Cells were washed with staining solution and resuspended in 100 μL of staining solution with a […] concentration of anti-mouse-PE secondary. Cells were washed with staining solution and resuspended in 100 μL of staining solution with 5 μL each of CD34-FITC, CD45-APC and CD38-APC (BD). Cells were washed with staining solution and resuspended in 200 μL. Cells were immediately applied to flow cytometry for analysis.

Test [6] deals with T6, 12-mer peptide VPAPRYTVELAC (human).
T6 construct: also called unconjugated peptide
T6 peptide: VPAPRYTVELAC
Nature of the test: ELISA, peptide adsorbed on the plate. The procedure:
Peptide was conjugated to Keyhole Limpet Hemocyanin (KLH) using methods known in the art. Unconjugated peptide, KLH-peptide, and KLH were then adsorbed onto different wells of a MAXIBIND 96-well ELISA plate, which was then blocked with 1% BSA. Anti-IL1RAP antibody 1F5 was then added to the wells followed by an incubation and a wash. After the wash, donkey-anti-mouse-HRP was added to the wells at a 1:50,000 dilution followed by an incubation and a wash. Color was developed with TMB substrate. The reaction was quenched with acid and the plate was read at 450 nm.

Test [7] addresses T7, soluble (secreted) form of IL1RAP in normal human serum (human, UniProt Q9NPH3 21-350).
T7 construct: Natural protein captured from human serum; also called IL1RAP from NHS; natural secreted form of IL1RAP in human serum
T7 sequence: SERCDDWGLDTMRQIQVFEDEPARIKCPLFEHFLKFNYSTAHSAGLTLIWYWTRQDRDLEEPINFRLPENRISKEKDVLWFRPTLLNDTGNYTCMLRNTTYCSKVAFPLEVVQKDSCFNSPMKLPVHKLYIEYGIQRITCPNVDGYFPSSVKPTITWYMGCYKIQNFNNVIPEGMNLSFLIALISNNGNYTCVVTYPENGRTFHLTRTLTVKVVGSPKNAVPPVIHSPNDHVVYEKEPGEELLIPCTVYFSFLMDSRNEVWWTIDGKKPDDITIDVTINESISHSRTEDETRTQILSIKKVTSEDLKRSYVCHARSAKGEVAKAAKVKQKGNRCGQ
Nature of the test: sandwich ELISA with normal human serum.

The target in test [8] is T7, soluble (secreted) form of IL1RAP in …. Nature of the test: ELISA, antigen captured from human serum by goat anti-human IL1RAP polyclonal, serially diluted antibody. The text has this: (§2) The binding specificity of purified 4B6 was confirmed by ELISA assays described below. Wells of 96-well plate were coated with goat-anti-human IL1RAP polyclonal antibodies to capture various forms of IL1RAP. Forms of IL1RAP captured were (a) ECD form of IL1RAP, (b) the secreted form IL1RAP, and (c) human serum containing the secreted form of IL1RAP. Each captured form was then reacted with serially diluted tested antibody 4B6, control antibody 12G6, or a mouse IgG1 isotype control antibody. After incubation and washing, wells were reacted with secondary donkey-anti-mouse-HRP polyclonal antibodies. Color was developed with TMB substrate after incubation and PBS washes.

Test [9] has as its target T1, secreted form of IL1RAP (recombinant). Description: ELISA, antigen captured by goat anti-human IL1RAP polyclonal, serially diluted antibody.
Excerpt: as §2

B1: monoclonal antibody 4G9 (antibody, V domains shown)
VH: QVQLQQSGTELVRPGASVKLSCKASGYTFTDYEMHWVKQTPVHGLEWIGAIDPGTGGIAYNQKFKGKATLTADKSSSTAYMELRSLTSEDSAVYYCTLYDYDLAYWGQGTLVTVSA
VL: DVLMTQTPLSLPVSLGDQASISCRSSQSIVHSNGNTYLEWFLQKPGQSPKLLIYTVSNRFSGVPDRFSGSGSGTDFTLKISRVEAEDLGVYYCFQGSHVPPTFGGGTKLEIK
On to B1, for which the binding result was “no binding (tested: 20 ug/ml)” in test [1] and “binds” in test [2].

B2: anti-receptor IL1RAP antibody clone 1F5 (antibody, V domains shown)
VH: EVKLVESGGGLVKPGASLKLSCAASGFTFSNYGMSWVRQTSDKRLEWVASISSGGGSTYYPDNVKGRFTISRENAKNTLYLQMSSLKSEDTALYYCARVLPGRWAMDYWGQGSSVTVSS
VL: DVVMTQTPLSLPVSLGDQASISCRSSQSLVHINGNTYLHWYLQKPGQSPKLLIYKVSNRFSGVPDRFSGSGSGTDFTLKISRVEAEDLGVYFCSQSTHVPWTFGGGTKLEIK
notes: Mouse monoclonal antibody from a hybridoma (A/J mice immunised with AC Pep-1-KLH); IgG2a was used as its control in flow cytometry; Hybridoma supernatants were used in some assays; also called anti-IL1RAP antibody 1F5; 1F5 supernatants
As to B2, the binding result in test [3] was “binds”; in test [4], “binds”; in [5], “binds”; in [6], “binds”; in test [7], “no binding”.

B3: monoclonal antibody 4B6 (antibody, V domains shown)
VH: EVKLVESGGGLVKPGGSLKLSCAASGFTFRTYAMSWVRQTPEKRLEWVASISSRGRIYYPDSVKGRFTISRDNARNILYLQMSSLRSEDTAMYYCARDGDYGSSYDYWGQGTTLTVSS
VL: DIQMTQSPSSLSASLGERVSLTCRASQDIGSSLNWLQQEPDGTIKRLIYATSSLDSGVPKRFSGSRSGSDYSLTISSLESEDFVDYYCLQYASSPWTFGGGTKLEIK
Consider B3, for which the binding result in test [8] and in test [9] was “no binding” in each case.
